In article PMC4585211:

Assays:
[1] = molecular target: LHCGR-Q303P/E305P (double proline mutant of the human lutropin/choriogonadotropin receptor), GFP fusion (human) (UniProt P22888)
[2] = molecular target: LHCGR-delExon10 (human lutropin/choriogonadotropin receptor lacking the exon10-encoded segment), GFP fusion (human) (UniProt P22888)

Row | Substance | EC50 of cAMP accumulation (radioimmunoassay) in transiently transfected HEK 293 cells, stimulation with hLH for 1 h at 37°C; not significantly different from wild type (0.13 IU/ml) [1] [IU/ml] | EC50 of cAMP accumulation (radioimmunoassay) in transiently transfected HEK 293 cells, stimulation with hLH for 1 h at 37°C; significantly right-shifted against wild type (0.13 IU/ml) [2] [IU/ml] | EC50 of cAMP accumulation (radioimmunoassay) in transiently transfected HEK 293 cells, stimulation with hCG for 1 h at 37°C; significantly right-shifted against wild type (0.15 IU/ml) [1] [IU/ml] | EC50 of cAMP accumulation (radioimmunoassay) in transiently transfected HEK 293 cells, stimulation with hCG for 1 h at 37°C; wild-type-like (wild type 0.15 IU/ml) [2] [IU/ml]
1 | human lutropin (hLH) (from UniProt P01215 25-116; P01229 21-141) (ligand) | 0.24 | 0.51 |  | 
2 | human choriogonadotropin (hCG) (from UniProt P01215 25-116; P0DN86 21-165) (ligand) |  |  | 0.85 | 0.18
